According to the DeepSol protein solubility set:

test: soluble on expression in E. coli; label from the status in PepcDB or PDB records

| Sequence | soluble on expression in E. coli |
| --- | --- |
| MDPFGILYTDLYQLTMGQVYFRMGLHEKEALFEAFYRRNPDYGAHQAGYTVFAGLDPLLSWMEEARFGEEEIAALRNLKSRSGKPLFAEDYLRYLKAMGGFSGLTLRALPEGRVAHPQVPLVSVEGPLLQAQLLETALLNRLNYETLIATKASRVREAAGEAVVLEFGLRRAPAKGGESATRASLIGGANRSSAVSLSHLLGLPASGTHAHSLVQAFMALGYSEEDAFRAFAEVFPDDAILLLDTVDTLHSGLPHAIRVFEELRRKGHRPVGVRIDSGDLAHLAIQVARELDRAGFPEVLIVLSGDLDELVIWQIKSQILEEAPRYGVDPDRLLKRLVYGVGTRMVVSWGAPALGGVYKLVAVRENGTWAPAMKVSNSLEKVLNPGHKRVYRVYDERGLATADLLALAEEEVREDAPLTLRHPTDPTKRRTLRPGSFRLEPLLEEVYRGRRLFPPLPLEELRKRRDRDVALLDPGVRRLVNPHVYHVSLTERLFALKEELVRRLEG | soluble |
| MDPLLTVLKERMRACQRRVSDRPRRQVVAIEWIDPPMASGNWIPELIALAGGENMLGTAGKHSPYIEWSTLLAIDPEVILVMPCGFDLERTRQELDQALQTYPQWQQLRALQTGQLYILDGNAYFNRPGPRLVDSLEILVEILHPCPEPKFHGVGWRPYVGPSMAKMSDEGLEHHHHHH | not soluble |
| MDPLSRDENYIQRLTPEMWREIKAASPEVTAEMLDDLKHGNTYYTGVETDKGVLIFSRDIIGEGQFSDYMYKYIENDFFASEFVLKSLAVHELRGWPSLMEGKLNRCHNRFGWWGDGETIRRAFQDRSVLKNVTDSETYDFTPPPHGRTITG | not soluble |
| MDPSSENNSPMVSPNDDKIVKITVSSVMQGVKQIVVEMKDKETVSILKNRIEQETEVLTNRQVLLFKGMELKDNNKTMTDCGINSDAKITMNVKMSTGIVTNPTTTDILLMMPPIFPTNQDQLRKEIKGMHTVHRKPKKMSGIDANASLWTPEKQMENEFTRNRMKTLLRRKKHAPILSGTPVDSEIGSAQTFSPVATPPGELSSPSTVSSHVSSGSEPESDAEVVTEKELKLFFDPPETIEEHKQCRRSMVLAPSSEEELLENLKKFEAERKTKCNTCFKKLSAAQQTMHCKCLRIFCDRHRHPKNHTCVIDYKQDGRNKLKKNNSKVGDGGWRKAKFES | not soluble |
| MDPSSKPLREIPGSYGIPFFQPIKDRLEYFYGTGGRDEYFRSRMQKYQSTVFRANMPPGPFVSSNPKVIVLLDAKSFPILFDVSKVEKKDLFTGTYMPSTKLTGGYRVLSYLDPSEPRHAQLKNLLFFMLKNSSNRVIPQFETTYTELFEGLEAELAKNGKAAFNDVGEQAAFRFLGRAYFNSNPEETKLGTSAPTLISSWVLFNLAPTLDLGLPWFLQEPLLHTFRLPAFLIKSTYNKLYDYFQSVATPVMEQAEKLGVPKDEAVHNILFAVCFNTFGGVKILFPNTLKWIGLAGENLHTQLAEEIRGAIKSYGDGNVTLEAIEQMPLTKSVVYESLRIEPPVPPQYGKAKSNFTIESHDATFEVKKGEMLFGYQPFATKDPKVFDRPEEYVPDRFVGDGEALLKYVWWSNGPETESPTVENKQCAGKDFVVLITRLFVIELFRRYDSFEIELGESPLGAAVTLTFLKRASI | soluble |
| MDQGMFYLSAAYIVKTMISGGNLLKEYIEERAVAIANYIIDYNATVRQTARKFGISKSTVHKDVTDRLENINPSLAAQARVVLDINKAERHIRGGMATKEKYQHQLQACSRK | not soluble |
| MDQPISVTLSSTTDPLWRSCHEYDNEMVITVNGRRIFPTLEYTVTGLDTFKLYSMCMHLDLVDDKKLRFTGGQWAESVSTEKKDPPRKVWHHNGSQTGKDWMLRNVSFDQIRITNRKSKEDGNASYVHLLTQHRYIPVLTIYEGDQLVHTARIPHSQFISVTAYHKGELNTLKTNNNPYSTGSRKDRRRERQSPVYSEGTSSEKSISPPPAKKIKDMAPALPDYSVISKPNLLQSLIFPMIAEQPSTSQSPPAPPVFPFNPDLQMQMLQPFMLPQFGFPCGFPSINPFMNPFLTPFTSMFPTPTVSPDGEGVKLEPEAFVEV | not soluble |
| MDRVDCIVIGAGVVGLAVARKLAQAGREVIVLEEAEAIGTITSSRNSEVIHAGIYYRAGSWMARMCVNGKHALYRYCGERGIPHKNCGKLIVATNAKETEKLQSIKAHAEANGVLDMQLLTGEAARALEPALACDAALLSPSTGIIDSHAYMLSLRGEAEEAGAAFAFHTPLIRAKAAAGMIEVEAGGEAPMALQCSLLVNAAGLAATTVARNIDGMPLDRIPPAYLAKGNYFSCNAKAPFSHLIYPVPEPGGLGVHLTLDMAGQARFGPDVEWIETINYEVDPSRAERFYPAIRRYWPTLPDGALMPSYSGIRPKIVPPAVATQDFLMQGPRDHGVAGLINLFGIESPGLTSSLAIADHVAELANILEHHHHHH | not soluble |
| MDSDHNHINGDLAHGFENMVCVRCNDGFSMQDQMVNSSGQVWHSECFVCAQCFEPFPDGIYFEYEGRKYCEHDFHVLFSPCCGKCNEFIVGRVIKAMNASWHPGCFCCEICNKQLADVGFLRNAGRALCRECNEREKAAGHGRYVCHKCHAMIDDGQHIKFRGDSFHPYHFKCKRCNNELTTASREVNGELYCLRCHDTMGIPICGACHRPIEERVIAALGKHWHVEHFVCSVCEKPFLGHRHYERKGLPYCEQHFHKLFGNLCFKCGDPCCGEVFQALQKTWCVKCFSCSFCDKKLDQKTKFYEFDMKPTCKRCYDRFPTELKKRISESLKDRDVENQRRSMSPGPK | not soluble |
| MDSDLKKVQKNSDQKQVSKSKTATAPTEPFNSKATELPSILKPKFPSDKVLKKKKSGDMFDLVGQIVIDIVDDNPDDDDRQDEATTVDTVQEGIGATVDVTLVEDVAEKAHEPASTPNVADRLQKPVAKDDNSAPVEEANRKKKEGKDPKNSEEAKKNSKKGKNGTARRSALKGVTIPPVAASLPCPPPPPPLSERKKNVGPKPCVGPAQKNLSSQRKHSSKRNRKGLLRNVAKLWGRKSDGIANPTKAMLSKKYVPPDYGVNPVDFMPDLECYFSKNDITVRDKNKCSKGEVFVEKLPFWLARLPSDDDIPKAQIQAHRPLKQAFEGNPSLLLPKCPRTLPFCEPDSDTLEKFKQVDKQMGTDVPEQASKRLCTNTFYGTLMFEKDKSASEEVKKKKEEPKLKSLGEESKLETKPKPYDFLQKKSTKTTGERGRQKPQLQKVPPQKLETGANVQKVKKMSARGLKVEMYYKLAEKNEAETSDVSILIDGHKRKFAVICNGIGREMVDLHYDSKKFPRIFSRERHLYVMFSESTSDGFRLTFGATEREQFLRIMHSLGCLLDTAIVKFSQQSSSSQPPPMRRDSTAVFNNSYNQYTSFQQASQPRVFSTIKLELSGDSCNSAFQPSQPTGFPDNQLLTIKKSSSNQISLSVEVADKCIQTEDLVDLLADDEYCMRKALRKMIENPSFIKAVAAAENTLQYIPQAEQEGLEDVTEPPINDIFFDRFHQPQLEQHDSVPED | soluble |
| MDSIYRDAGYDVLKVSAKTGEGIDELVDYLEGFICILAGPSGVGKSSILSRLTGEELRTQEVSEKTERGRHTTTGVRLIPFGKGSFVGDTPGFSKVEATMFVKPREVRNYFREFLRYQCKYPDCTHTNEPGCAVKEAVKNGEISCERYKSYLKIIKVYLEEIKELCREDLEHHHHHH | not soluble |
| MDSKILTMFNQGKHEEAIQAAVKAIDAAPDDPKRYAMLATMLISIKALDQAGELLAKARQLFPEDLELQYTAGLFAYAQADFAAAVSWFAKVRTDQTLKNDATYMLALSYQQAGQPTKALAFALTAHDLAPKQLDTALLAADLLMANDVFDAAARVLKPLLATEQPQVLFTYGMALSAAGKDGSHYLNKAKALDPKGYDQKANIVADINRFLRLQEGQDGHALEHHHHHH | soluble |
| MDTHKVFVNRIINMRKIKLIGLDMDHTLIRYNSKNFESLVYDLVKERLAESFHYPEEIKKFKFNFDDAIRGLVIDSKNGNILKLSRYGAIRLSYHGTKQISFSDQKKIYRSIYVDLGDPNYMAIDTSFSIAFCILYGQLVDLKDTNPDKMPSYQAIAQDVQYCVDKVHSDGTLKNIIIKNLKKYVIREKEVVEGLKHFIRYGKKIFILTNSEYSYSKLLLDYALSPFLDKGEHWQGLFEFVITLANKPRFFYDNLRFLSVNPENGTMTNVHGPIVPGVYQGGNAKKFTEDLGVGGDEILYIGDHIYGDILRLKKDCNWRTALVVEELGEEIASQIRALPIEKKIGEAMAIKKELEQKYVDLCTRSIDESSQQYDQEIHDLQLQISTVDLQISRLLQEQNSFYNPKWERVFRAGAEESYFAYQVDRFACIYMEKLSDLLEHSPMTYFRANRRLLAHDIDIAAALEHHHHHH | soluble |
